Laboratory results published in the Immune Epitope Database (IEDB).
pKd: −log10 of the molar value.

Legend:
HLA-A*24:02 = assay: IEDB peptide-MHC binding, purified MHC/direct/fluorescence; filed as Kd, often an IC50 or EC50 that approximates it; ≥ and ≤ were set here for values at or beyond the usual limits of such assays
HLA-A*02:01 [1] = assay: IEDB peptide-MHC binding, purified MHC/competitive/fluorescence; filed as Kd, often an IC50 or EC50 that approximates it; ≥ and ≤ were set here for values at or beyond the usual limits of such assays; conditions: source organism: Francisella tularensis subsp. tularensis FSC198
HLA-A*68:02 = assay: as above
HLA-B*15:17 [2] = assay: as above; conditions: source organism: Francisella tularensis subsp. tularensis FSC198
HLA-B*57:01 [3] = assay: as above; conditions: source organism: Francisella tularensis subsp. tularensis FSC198
HLA-A*26:03 = assay: as above
HLA-A*26:02 = assay: as above; conditions: source organism: Francisella tularensis subsp. tularensis FSC198
HLA-A*31:01 [4] = assay: as above; conditions: source organism: Francisella tularensis subsp. tularensis FSC198
HLA-B*07:02 [5] = assay: IEDB peptide-MHC binding, purified MHC/direct/fluorescence; filed as Kd, often an IC50 or EC50 that approximates it; ≥ and ≤ were set here for values at or beyond the usual limits of such assays
HLA-A*01:01 = assay: as above
HLA-B*18:01 = assay: as above
HLA-A*11:01 = assay: as above
HLA-A*24:03 = assay: as above; conditions: source organism: Francisella tularensis subsp. holarctica LVS
HLA-B*08:02 = assay: as above
HLA-B*15:09 = assay: as above; conditions: source organism: Francisella tularensis subsp. tularensis FSC033
HLA-B*08:01 [6] = assay: as above
HLA-B*15:01 [7] = assay: as above
HLA-B*58:01 = assay: as above
HLA-B*44:02 = assay: as above
HLA-A*03:01 = assay: as above
HLA-A*02:01 [8] = assay: as above
HLA-A*69:01 = assay: as above
HLA-B*27:05 = assay: as above
HLA-B*40:01 = assay: as above
HLA-A*31:01 [9] = assay: as above
HLA-B*07:02 [10] = assay: IEDB peptide-MHC binding, purified MHC/competitive/fluorescence; filed as Kd, often an IC50 or EC50 that approximates it; ≥ and ≤ were set here for values at or beyond the usual limits of such assays; conditions: source organism: Mycobacterium tuberculosis C
HLA-B*08:01 [11] = assay: as above; conditions: source organism: Mycobacterium tuberculosis C
HLA-A*30:01 = assay: as above; conditions: source organism: Mycobacterium tuberculosis C
HLA-B*15:01 [12] = assay: as above; conditions: source organism: Mycobacterium tuberculosis C
HLA-A*26:01 = assay: IEDB peptide-MHC binding, purified MHC/direct/fluorescence; filed as Kd, often an IC50 or EC50 that approximates it; ≥ and ≤ were set here for values at or beyond the usual limits of such assays
HLA-B*15:17 [13] = assay: as above; conditions: source organism: Mycobacterium tuberculosis
HLA-B*46:01 = assay: as above
HLA-B*48:01 = assay: as above; conditions: source organism: Mycobacterium tuberculosis
HLA-B*08:03 = assay: as above; conditions: source organism: Mycobacterium tuberculosis C
HLA-B*57:01 [14] = assay: as above; conditions: source organism: Mycobacterium tuberculosis
[15] = source organism: Francisella tularensis subsp. tularensis FSC198
[16] = source organism: Francisella tularensis subsp. holarctica LVS
[17] = source organism: Francisella tularensis subsp. tularensis FSC033
[18] = source organism: Shigella flexneri
[19] = source organism: Mycobacterium tuberculosis C
[20] = source organism: Mycobacterium tuberculosis
[21] = source organism: Influenza A virus (A/chicken/Vietnam/5/2003(H5N1))
[22] = source organism: Influenza A virus (A/Puerto Rico/8/34/Mount Sinai(H1N1))
[23] = source organism: Influenza A virus (A/goose/Hong Kong/8/1976(H1N1))
[24] = source organism: Influenza A virus(A/swine/Shandong/fNY/2003(H9N2))

In the case of RYLNIYQLW, the pKd (HLA-A*24:02; source organism: Cryptosporidium parvum Iowa II) was 8.70.
IYTVIYYIF was tested, and the pKd (HLA-A*02:01 [1]) was ≤ 4.70, the pKd (HLA-A*68:02; [15]) was 5.40 and the pKd (HLA-B*15:17 [2]) was 6.36. The pKd (HLA-B*57:01 [3]) was ≤ 4.70, the pKd (HLA-A*26:03; [15]) was ≤ 4.70 and the pKd (HLA-A*26:02) was 5.95. For the same sequence, the pKd (HLA-A*31:01 [4]) was ≤ 4.70, the pKd (HLA-B*07:02 [5]; [16]) was ≤ 4.70 and the pKd (HLA-A*01:01; [16]) was ≤ 4.70. For the same sequence, the pKd (HLA-B*18:01; [17]) was 5.05, the pKd (HLA-A*11:01; [16]) was ≤ 4.70 and the pKd (HLA-A*24:03) was 6.57. The pKd (HLA-B*08:02; [17]) was ≤ 4.70, the pKd (HLA-B*15:09) was ≤ 4.70 and the pKd (HLA-B*08:01 [6]; [17]) was ≤ 4.70. The pKd (HLA-B*15:01 [7]; [16]) was ≤ 4.70 and the pKd (HLA-B*58:01; [17]) was 6.82.
For LSSIGIPAY, the pKd (HLA-B*44:02; [18]) was ≤ 4.70, the pKd (HLA-A*03:01; [18]) was ≤ 4.70 and the pKd (HLA-B*07:02 [5]; [18]) was ≤ 4.70. The pKd (HLA-A*02:01 [8]; [18]) was ≤ 4.70, the pKd (HLA-A*01:01; [18]) was 6.44 and the pKd (HLA-A*11:01; [18]) was ≤ 4.70. The pKd (HLA-A*69:01; [18]) was ≤ 4.70, the pKd (HLA-B*27:05; [18]) was ≤ 4.70 and the pKd (HLA-B*40:01; [18]) was ≤ 4.70. The pKd (HLA-B*15:01 [7]; [18]) was 6.52, the pKd (HLA-B*58:01; [18]) was 6.75 and the pKd (HLA-A*31:01 [9]; [18]) was ≤ 4.70. For the same sequence, the pKd (HLA-A*24:02; [18]) was ≤ 4.70.
TIHLATAPK was tested, and the pKd (HLA-B*07:02 [10]) was ≤ 4.70, the pKd (HLA-A*68:02; [19]) was 6.12 and the pKd (HLA-B*08:01 [11]) was ≤ 4.70. The pKd (HLA-A*30:01) was 9.70, the pKd (HLA-A*26:03; [19]) was ≤ 4.70 and the pKd (HLA-B*15:01 [12]) was ≤ 4.70. For the same sequence, the pKd (HLA-A*26:01; [19]) was ≤ 4.70, the pKd (HLA-A*01:01; [20]) was ≤ 4.70 and the pKd (HLA-B*18:01; [20]) was ≤ 4.70. The pKd (HLA-A*11:01; [20]) was 8.06, the pKd (HLA-A*69:01; [20]) was 5.63 and the pKd (HLA-B*08:02; [19]) was ≤ 4.70. For the same sequence, the pKd (HLA-B*27:05; [20]) was ≤ 4.70, the pKd (HLA-B*15:17 [13]) was ≤ 4.70 and the pKd (HLA-B*40:01; [20]) was ≤ 4.70. For the same sequence, the pKd (HLA-B*46:01; [20]) was ≤ 4.70, the pKd (HLA-B*48:01) was ≤ 4.70 and the pKd (HLA-B*08:03) was ≤ 4.70. For the same sequence, the pKd (HLA-B*57:01 [14]) was ≤ 4.70, the pKd (HLA-B*58:01; [20]) was ≤ 4.70 and the pKd (HLA-A*31:01 [9]; [20]) was 6.19.
For QTYDWTLNR, the pKd (HLA-B*44:02; [21]) was ≤ 4.70, the pKd (HLA-A*03:01; [22]) was 6.42 and the pKd (HLA-B*07:02 [5]; [21]) was ≤ 4.70. For the same sequence, the pKd (HLA-A*02:01 [8]; [21]) was ≤ 4.70, the pKd (HLA-A*01:01; [21]) was ≤ 4.70 and the pKd (HLA-B*18:01; [21]) was ≤ 4.70. For the same sequence, the pKd (HLA-B*08:02; source organism: Influenza A virus(A/swine/Henan/3/2004(H9N2))) was ≤ 4.70, the pKd (HLA-B*27:05; [21]) was ≤ 4.70 and the pKd (HLA-B*40:01; [21]) was ≤ 4.70. The pKd (HLA-B*46:01; [21]) was ≤ 4.70, the pKd (HLA-B*08:01 [6]; [21]) was ≤ 4.70 and the pKd (HLA-B*15:01 [7]; [21]) was ≤ 4.70. The pKd (HLA-B*58:01; [21]) was ≤ 4.70 and the pKd (HLA-A*24:02; [21]) was ≤ 4.70.
KTTYWWDGL was tested, and the pKd (HLA-B*44:02; [23]) was ≤ 4.70, the pKd (HLA-A*03:01; [23]) was ≤ 4.70 and the pKd (HLA-B*07:02 [5]; [23]) was ≤ 4.70. For the same sequence, the pKd (HLA-A*02:01 [8]; [23]) was ≤ 4.70, the pKd (HLA-A*26:01; [24]) was ≤ 4.70 and the pKd (HLA-A*01:01; [23]) was ≤ 4.70. The pKd (HLA-A*11:01; [23]) was ≤ 4.70, the pKd (HLA-A*69:01; [23]) was ≤ 4.70 and the pKd (HLA-B*08:02; [24]) was ≤ 4.70. The pKd (HLA-B*27:05; [23]) was ≤ 4.70, the pKd (HLA-B*40:01; [22]) was ≤ 5.30 and the pKd (HLA-B*46:01; [23]) was ≤ 4.70. For the same sequence, the pKd (HLA-B*08:01 [6]; [23]) was ≤ 4.70, the pKd (HLA-B*15:01 [7]; [23]) was ≤ 4.70 and the pKd (HLA-B*58:01; [23]) was ≤ 5.30. For the same sequence, the pKd (HLA-A*24:02; [23]) was ≤ 4.70.
